The labels stand for the following.
T1: B7-H2mIg (extracellular domain of human B7-H2 linked to mouse IgG2a Fc portion) (human, UniProt O75144 19-256)
T1 sequence: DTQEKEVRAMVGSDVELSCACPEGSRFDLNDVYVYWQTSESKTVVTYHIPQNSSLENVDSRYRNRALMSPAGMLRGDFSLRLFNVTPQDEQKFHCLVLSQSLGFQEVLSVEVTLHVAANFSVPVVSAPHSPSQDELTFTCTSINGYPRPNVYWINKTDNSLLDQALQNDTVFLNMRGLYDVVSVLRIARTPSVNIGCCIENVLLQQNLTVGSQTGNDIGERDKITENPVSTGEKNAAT

B1: ICOSIg (extracellular domain of human ICOS fused to the CH2-CH3 portion of human IgG1) (Fc fusion)
chain: EINGSANYEMFIFHNGGVQILCKYPDIVQQFKMQLLKGGQILCDLTKTKGSGNTVSIKSLKFCHSQLSNNSVSFFLYNLDHSHANYYFCNLSIFDPPPFKVTLTGGYLHIYESQLCCQLK
B2: ICOSIg mutant F119S (Fc fusion)
chain: B1 chain with F99S
B3: ICOSIg mutant K67S (Fc fusion)
chain: B1 chain with K47S
B4: ICOSIg mutant Q49S (Fc fusion)
chain: B1 chain with Q29S
B5: ICOSIg mutant D64S (Fc fusion)
chain: B1 chain with D44S
B6: ICOSIg mutant K69S (Fc fusion)
chain: B1 chain with K49S
B7: ICOSIg mutant Q50S (Fc fusion)
chain: B1 chain with Q30S
B8: ICOSIg homologue replacement mutant RP49-52 (ICOS 49-52 replaced by CD28 49-52) (Fc fusion)
chain: B1 chain with Q29R, Q30E, K32R
B9: ICOSIg mutant F114S (Fc fusion)
chain: B1 chain with F94S
B10: ICOSIg mutant D115S (Fc fusion)
chain: B1 chain with D95S
B11: ICOSIg mutant F51S (Fc fusion)
chain: B1 chain with F31S

The values that follow come from paper PMC2193694 (The Journal of Experimental Medicine, 2002).

Numbering of substitutions follows the chain as printed. Numbers in names are those of the source.

The first assay deals with B7-H2mIg (extracellular domain of human B7-H2 linked to mouse IgG2a Fc portion) (human) (UniProt O75144). Nature of the assay: ELISA.
For “ICOSIg mutant P117S (from UniProt Q9Y6W8 21-140) (Fc fusion)”, the percentage of B7-H2 binding activity (of ICOSIg) is below 0.1%.

A further assay deals with T1, B7-H2mIg (extracellular domain of human …). Nature of the assay: ELISA. In general terms: An ELISA detects its analyte on a solid surface through an enzyme-linked reagent.
With B1, the “percentage of B7-H2 binding activity (of ICOSIg)” value (“percentage” for short) is 100%. In the case of B2, the “percentage” value is below 0.1%.

Turning to B3, the “percentage” value is below 0.1%. Still for that read-out and setting: the figure for B4 is 33%; for B5 it is 6%; for B6 it is 3%.

With B7, the “percentage” value worked out at 6%. On to B8, for which the “percentage” value came to 9%.

As to B9, the “percentage” value was below 0.1%.

B10: the “percentage” value was below 0.1%. On the same count and under the same terms, the figure for B11 is below 0.1%.
